Laboratory results reported in article PMC7055391.

Molecular target: Cqm1 receptor protein (functional form; residues 23–560) (Culex quinquefasciatus)
Experiment: small-angle neutron scattering (SANS); single proteins in 100% D2O buffer C (25 mM HEPES pH 7.5, 25 mM NaCl), 25°C; Cqm1 3.3 mg/ml, hBinB 3.3 mg/ml; ab initio IFT modelling and fits against crystal structures

Cqm1 receptor protein (functional form; residues 23–560)
stoichiometry N: 2
